# Source: US20210395390A1 (Bayer, published 2021)
# B1: TPP-9251 (antibody, human IgG1, lambda, V domains shown)
# VH: EVQLLESGGGLVQPGGSLRLSCAASGFTFSNYGIHWVRQAPGKGLEWVSAIGTGGDTYYADSVTGRFTISRDNSKNTLYLQMNSLRAEDTAVYYCARDRGYYDILTGLYDYWGQGTLVTVSS
# VL: QSVLTQPPSASGTPGQRVTISCSGSSSNIGNNYVNWYQQLPGTAPKLLIYGNYHRPSGVPDRFSGSKSGTSASLAITGLQAEDEADYYCSSYAGSNNWVFGGGTKLTVLG
# B2: TPP-9258 (antibody, human IgG1, lambda, V domains shown)
# VH: EVQLLESGGGLVQPGGSLRLSCAASGFTFSSYGMHWVRQAPGKGLEWVSAIGTGGDTYYADSVQGRFTISRDNSKNTLYLQMNSLRAEDTAVYYCARDRGYYDILTGLYDYWGQGTLVTVSS
# VL: QSVLTQPPSASGTPGQRVTISCSGSSSNIGNNYVNWYQQLPGTAPKLLIYGNYHRPSGVPDRFSGSKSGTSASLAITGLQAEDEADYYCSSYAGSNNWVFGGGTKLTVLG
# B3: TPP-9238 (antibody, human IgG1, lambda, V domains shown)
# VH: EVQLLESGGGLVQPGGSLRLSCAASGFTFSNYGIHWVRQAPGKGLEWVSAIGTGGDTYYADSVMGRFTISRDNSKNTLYLQMNSLRAEDTAVYYCARDRGYYDILTGLYDYWGQGTLVTVSS
# VL: QSVLTQPPSASGTPGQRVTISCSGSSSNIGNNYVNWYQQLPGTAPKLLIYGNYHRPSGVPDRFSGSKSGTSASLAITGLQAEDEADYYCSSYAGSNNWVFGGGTKLTVLG
# Target: anti-FXIa antibody 076D-M007-H04-CDRL3-N110D
# Test: cell-based or functional assay
Binder,aPTT 1.5 X,biochemical FXIa assay IC 50,plasma based assay IC 50
B1,0.06 µM,0.2 nM,6 nM
B2,0.1 µM,0.5 nM,7 nM
B3,0.1 µM,0.5 nM,10 nM
